Assay results reported in US10208288B2, “Differentiation of human embryonic stem cells into pancreatic endocrine cells” (Janssen Biotech, Inc., priority 2012, dated 2019).

System: cells of the human embryonic stem cell line H1 differentiated to stage 5
Experiment: Immunostaining for insulin protein expression at the end of Stage 5
Format: cell-based
Details: 50 or 100 ng/ml for three days at stage 5, immunostaining vs control; FIG. 2, FIG. 3
Procedure: Cells of the human embryonic stem cell line H1 (hESC H1, passage 40) were seeded as single cells at 1×10^5 cells/cm^2 on MATRIGEL™ (1:30 dilution; BD Biosciences, NJ)-coated dishes in mTeSR®1 media supplemented with 10 μM of Y27632. Forty-eight hours post seeding, cultures were washed in incomplete PBS (phosphate buffered saline without Mg or Ca). Cultures were differentiated into pancreatic endoderm/endocrine lineages as follows: • a) Stage 1 (Definitive Endoderm (DE)—3 days): Cells were cultured for one day in stage 1 media (see Example 1, above). Cells were then cultured for an additional day in MCDB-131 medium supplemented with 0.1% fatty acid-free BSA, 0.0012 g/ml sodium bicarbonate, 1× GlutaMax™, 4.5 mM D-Glucose, 100 ng/ml GDF8, and 0.1 μM MCX compound. […]

B1: Ephrin-A3: Ephrin ligand protein from R & D systems (protein, UniProt P52797 23-214, looked up)
Ephrin-A3: QGPGGALGNRHAVYWNSSNQHLRREGYTVQVNVNDYLDIYCPHYNSSGVGPGAGPGPGGGAEQYVLYMVSRNGYRTCNASQGFKRWECNRPHAPHSPIKFSEKFQRYSAFSLGYEFHAGHEYYYISTPTHNLHWKCLRMKVFVCCASTSHSGEKPVPTLPQFTMGPNVKINVLEDFEGENPQVPKLEKSISG
protein expression of insulin: significantly enhanced
